Laboratory results reported in paper PMC11161652, “ASXLs binding to the PHD2/3 fingers of MLL4 provides a mechanism for the recruitment of BAP1 to active enhancers” (Nature Communications, 2024).

What was measured:
[1] = biological target: T1, PHD2 and PHD3 fingers of human MLL4 (aa 227-324) (human, UniProt O14686 227-324); assay: not stated; fluorescence spectroscopy or NMR: the legends of Fig. 3c and Fig. 4b say that values marked (a) are from NMR and the others from fluorescence; the text does not tell which for these pairs; settings: both partners purified
T1 construct: PHD2 and PHD3 fingers of human MLL4 (KMT2D), aa 227-324; also called MLL4_(PHD2/3); MLL4 PHD2/3; source: E. coli BL21-CodonPlus, purified (glutathione agarose, PreScission cleavage; unlabeled proteins also SEC)
T1 sequence (looked up): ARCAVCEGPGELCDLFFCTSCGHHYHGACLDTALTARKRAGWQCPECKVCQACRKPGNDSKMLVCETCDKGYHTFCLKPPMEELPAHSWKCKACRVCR

[2] = biological target: T2, PHD2 and PHD3 fingers of human MLL3 (aa 342-439) (human, UniProt Q8NEZ4 342-439); assay: other fluorescence titration; tryptophan fluorescence, 25 °C; 1.0 µM MLL4 PHD2/3 or MLL3 PHD2/3 with increasing peptide; excitation 295 nm; 20 mM Tris pH 7.2, 150 mM NaCl, 1 mM TCEP, 0.02% Tween20; average of three measurements; settings: both partners purified
T2 construct: PHD2 and PHD3 fingers of human MLL3 (KMT2C), aa 342-439; 15N-labelled for NMR titrations; also used unlabelled as the titrant against MLL3 PHD4; also called MLL3_(PHD2/3); MLL3 PHD2/3; source: E. coli BL21-CodonPlus, purified (glutathione agarose, PreScission cleavage; unlabeled proteins also SEC)
T2 sequence (looked up): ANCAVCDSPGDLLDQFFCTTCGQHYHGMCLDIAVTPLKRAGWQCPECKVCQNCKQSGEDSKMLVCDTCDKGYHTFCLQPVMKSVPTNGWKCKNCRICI

[3] = biological target: T3, PHD2 and PHD3 fingers of human MLL3 (aa 342-439) (human, UniProt Q8NEZ4 342-439)
T3 chain: T2 sequence (looked up)

[4] = biological target: T4, PHD2 and PHD3 fingers of human MLL4 (aa 227-324) (human, UniProt O14686 227-324)
T4 chain: T1 sequence (looked up)

- fold reduction in binding against the wild type ASXL2 peptide [1]: ~16 fold
- binding result [2]: binds
- Kd [3]: 10.5 µM
- Kd [4]: 11 µM
B1: ASXL2 peptide (aa 650-670) R655I (peptide, UniProt Q76L83 650-670, looked up)
peptide: NRTGAITLADIKAKAQLVKAQ
notes: ASXL2, residues 650-670; R655I is said to be associated with large intestine cancer; also called R655I mutant of ASXL2; source: synthetic peptide (SynPeptide)
